B1: Beta-catenin homolog sys-1 (Caenorhabditis elegans), Q9XVI2 (parent)
chain: MHSTGEPQRGPAGPYHHPMPYHVDQIPTTSHPSWHQAPHPGLPTPPYHPQQHPNYISMQPPPSQQQQMTPQALSTQQQQQVQQQQQRQLYSSPSPSRGPAAPAQNQKFRTEQWINNQAWPYSQSPAPPVAPSVMSYHQGDDRMSMLSVNTTMTNQFPDSQRCYSSNGSTCENVNPEMMQMNITQAAEQAIRLWFNTPDPMQRLHMAKTIRTWIRQDKFAQVDQANMPNCVQQILNIIYDGLKPQPVQLPISYYAQLWYNLLDILRRFTFLPIISPYIHQVVQMFCPRENGPQDFRELICNLISLNWQKDPHMKHCANQVFQIFNCIIMGVKNEKLRTEFAQHLKFEKLVGTLSEYFNPQVHPGMINPAIFIIFRFIISKDTRLKDYFIWNNNPHDQPPPPTGLIIKLNAVMIGSYRLIAGQNPETLPQNPELAHLIQVIIRTFDLLGLLLHDSDAIDGFVRSDGVGAITTVVQYPNNDLIRAGCKLLLQVSDAKALAKTPLENILPFLLRLIEIHPDDEVIYSGTGFLSNVVAHKQHVKDIAIRSNAIFLLHTIISKYPRLDELTDAPKRNRVCEIICNCLRTLNNFLMMWIPTPNGETKTAGPNEKQQVCKFIEIDILKKLMSCLSCEGMDTPGLLELRSTILRSFILLLRTPFVPKDGVLNVIDENRKENLIGHICAAYSWVFRQPNNTRTQSTKQQLVERTISLLLVLMEQCGAEKEVAQYSYSIDCPLNLLNGNQVKPTFIHNVLVVCDKILEHCPTRADIWTIDRPMLEGLTNHRNSDIAKAANSLLSRFPENDLLAGIFSNREYF
partner: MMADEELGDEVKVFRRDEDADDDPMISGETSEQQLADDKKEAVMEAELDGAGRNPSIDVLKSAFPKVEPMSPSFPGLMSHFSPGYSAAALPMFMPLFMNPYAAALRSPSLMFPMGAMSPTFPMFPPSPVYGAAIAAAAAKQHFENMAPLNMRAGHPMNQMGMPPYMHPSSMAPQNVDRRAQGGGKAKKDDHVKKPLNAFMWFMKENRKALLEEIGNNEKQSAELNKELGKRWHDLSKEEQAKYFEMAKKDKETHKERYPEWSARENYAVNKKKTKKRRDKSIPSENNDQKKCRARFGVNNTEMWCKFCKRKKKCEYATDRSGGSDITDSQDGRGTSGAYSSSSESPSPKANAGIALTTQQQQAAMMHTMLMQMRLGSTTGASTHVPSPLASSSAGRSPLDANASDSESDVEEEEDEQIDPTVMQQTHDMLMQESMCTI
B2: Protein pop-1 (Caenorhabditis elegans), Q10666 (parent)
chain: B1 partner
partner: B1 chain

Variants of: B1
Details: with pop1_caeel pop-1, Q10666

Variant | effect of a mutation on the interaction
K539A | disrupting interaction strength
A533L | disrupting interaction strength

Variants of: B2
Details: with ctnh1_caeel sys-1, Q9XVI2

Variant | effect of a mutation on the interaction
D9E | disrupting interaction strength

— IntAct's records for PubMed 18477457
